Here are results for 17 molecules from patent publication US20240352144A1 (UNIVERSIT TSKLINIKUM HAMBURG EPPENDORF, published 2024).

Assay [1] has as its target T1, human CD39 (gene ID 953) (human, UniProt P49961 5-510).
T1 construct: Cell-surface form: transiently or stably transfected HEK cells, PBMCs, AML cell lines; also called native CD39; human CD39 transfected HEK cells
T1 sequence: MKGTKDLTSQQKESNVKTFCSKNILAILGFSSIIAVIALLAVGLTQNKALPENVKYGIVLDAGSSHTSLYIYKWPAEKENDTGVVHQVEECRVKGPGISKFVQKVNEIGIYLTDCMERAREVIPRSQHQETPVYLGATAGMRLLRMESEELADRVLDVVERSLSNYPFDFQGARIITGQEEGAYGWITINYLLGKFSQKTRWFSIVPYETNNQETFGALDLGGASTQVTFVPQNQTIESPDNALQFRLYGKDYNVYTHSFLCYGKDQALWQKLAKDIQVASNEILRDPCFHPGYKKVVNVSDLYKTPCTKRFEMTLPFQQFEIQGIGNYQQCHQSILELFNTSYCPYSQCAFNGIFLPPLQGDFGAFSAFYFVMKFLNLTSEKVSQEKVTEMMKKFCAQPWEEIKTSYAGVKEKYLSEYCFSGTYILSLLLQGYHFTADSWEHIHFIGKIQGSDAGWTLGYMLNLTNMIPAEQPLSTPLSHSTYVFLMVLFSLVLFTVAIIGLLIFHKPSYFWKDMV
Briefly: flow cytometry binning on human CD39-expressing cells; competitor: Fam. 2 human IgG hcAb in excess.

For assay [2], the target named is T1, human CD39 (gene ID 953). In words: flow cytometry binning on human CD39-expressing cells; competitor: human IgG hcAb SB24 (Fam. 1) in excess.
The target in assay [3] is T1, human CD39 (gene ID 953). In words: flow cytometry binning on human CD39-expressing cells; competitor: Fam. 3 human IgG hcAb (SB134) in excess.
Assay [4] concerns the target T1, human CD39 (gene ID 953). Briefly: flow cytometry binning on human CD39-expressing cells; competitor: Fam. 5 human IgG hcAb (SB136) in excess.
The target of assay [5] is T1, human CD39 (gene ID 953). In words: flow cytometry, rabbit IgG hcAb supernatant on transfected HEK cells.
Assay [6] has as its target recombinant human CD39 ectodomain with C-terminal His6x tag (human) (UniProt P49961). Briefly: BLI (Octet RED96), rabbit IgG hcAb on protein A biosensor, recombinant CD39 ectodomain as analyte at 200 ng/µl.
Assay [7] concerns the target T2, mouse CD39 (gene ID 12495) (mouse, UniProt P55772 1-510).
T2 construct: whole, on cells; also called murine CD39; mouse CD39 transfected HEK cells
T2 sequence (looked up): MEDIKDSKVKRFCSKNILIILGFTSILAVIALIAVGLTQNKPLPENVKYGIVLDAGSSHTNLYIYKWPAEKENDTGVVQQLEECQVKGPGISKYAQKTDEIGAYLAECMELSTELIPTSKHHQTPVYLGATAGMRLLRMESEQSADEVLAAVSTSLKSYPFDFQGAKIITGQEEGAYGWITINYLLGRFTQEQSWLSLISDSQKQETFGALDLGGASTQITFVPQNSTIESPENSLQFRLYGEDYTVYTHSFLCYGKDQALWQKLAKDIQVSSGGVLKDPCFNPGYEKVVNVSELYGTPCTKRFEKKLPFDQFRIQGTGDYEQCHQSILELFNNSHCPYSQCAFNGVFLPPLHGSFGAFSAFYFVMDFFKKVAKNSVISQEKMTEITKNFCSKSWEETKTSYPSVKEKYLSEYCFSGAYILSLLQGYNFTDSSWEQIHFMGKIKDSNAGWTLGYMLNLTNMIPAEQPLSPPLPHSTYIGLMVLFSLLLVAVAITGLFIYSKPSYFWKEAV
Briefly: Table 1 specificity; sorted by binding to human (h) and/or mouse (m) CD39.

In assay [8] the target is T1, human CD39 (gene ID 953). Briefly: Table 1 specificity; binding to human (h) and/or mouse (m) CD39.
Assay [9] has as its target T2, mouse CD39 (gene ID 12495). The assay is described as above.

Positions count from the first letter of the chain named.

Regarding “monoclonal antibody against CD39, clone eBioA1”, the percent inhibition of binding is 8% with human CD39 (gene ID 953) [1], 17% with human CD39 (gene ID 953) [2], 5% with human CD39 (gene ID 953) [3] and 75% with human CD39 (gene ID 953) [4].

B1: SB126 rabbit IgG hcAb (Fc fusion, not shown: a dimerising Fc or GST)
VHH: QVQLVESGGGLVQAGDSLRLSCAASGRIPVTTTTAWFRQAPGKEREFVAAIRWNSGDAAYADSAKGRFTISRDSAKNTLYLQMNNLEPEDTAVYYCAAKYSRYAPQSTDYDYWGQGTQVTVSS
notes: also called family 2
With B1, the binding result in the assay with human CD39 (gene ID 953) [5] is given as “binds”. The koff in [6] is 0.048 s⁻¹.

B2: SB127 rabbit IgG hcAb (Fc fusion, not shown: a dimerising Fc or GST)
VHH: B1 VHH with R52T, D57N, A58T, A59N, E87K, A104N, P105L
notes: also called family 2
As to B2, in the assay with human CD39 (gene ID 953) [5], the binding result is on record as “binds”. Besides, the koff in [6] stood at 0.028 s⁻¹.

B3: SB128 rabbit IgG hcAb (Fc fusion, not shown: a dimerising Fc or GST)
VHH: QVQLVESGGGLVQAGDSLRLSCAASGRTPITTTTGWFRQAPGKEREFVAAIRWDSGNTNYADSAKGRFTISRDSAKNLLYLQMTNLKPEDTAVYYCAAKYSRYLPQSTDYDYWGQGTQVTVSS
notes: also called l- 14b; family 2
In the case of B3, the binding result in assay [7] was “no binding”. The “percent inhibition of binding” value was 86% in the assay with human CD39 (gene ID 953) [1], 14% with human CD39 (gene ID 953) [2], 88% with human CD39 (gene ID 953) [3] and 42% in the assay with human CD39 (gene ID 953) [4]. Further, the koff in [6] is 0.011 s⁻¹.

B4: SB135 rabbit IgG hcAb (Fc fusion, not shown: a dimerising Fc or GST)
VHH: QVKLQESGGGLVQAGGSLRLSCTASEESFNKYGVGWFRQAPGKERAFVVAIRPSGVITSYADSVKGRFTISRDSAKNTAYLQMNSLKPEDTALYYCAANSRNTNYYRPNGYDYWGRGTQVTVSS
notes: also called l- 15; family 4
Consider B4, for which the binding result in assay [7] is given as “no binding”. Further, the “percent inhibition of binding” value worked out at 46% with human CD39 (gene ID 953) [1], 9% with human CD39 (gene ID 953) [2], 53% with human CD39 (gene ID 953) [3] and 37% with human CD39 (gene ID 953) [4]. Moreover, the koff in [6] worked out at 0.03 s⁻¹.

B5: SB90 rabbit IgG hcAb (Fc fusion, not shown: a dimerising Fc or GST)
VHH: QVQLVESGGGLVQAGGSLRLSCAVSGLNNYAIGWLRQAPGKEREGVSCINCFDDFTYYADSVKGRFTVSCDNANHTVNLEMNSLRPEDTAVYYCAAGTCGSWWRYTPTPADGAWGRGTQVTVSS
notes: also called s+ 17; family 8
Consider B5, for which the binding result (in the assay with human CD39 (gene ID 953) [8]; in assay [9]) was “binds” throughout.

B6: SB137 rabbit IgG hcAb (Fc fusion, not shown: a dimerising Fc or GST)
VHH: QVKLQESGGGLGQAGGSLRLSCSASARTSATYVMGWFRQAPGKEREFVATISRSTSTTYYGDSVKGRFTISRDNAKNAVYLQMNSLKPEDTAVYYCATRAPRYGTASTRLSDYDNWGQGTQVTVSS
notes: also called s- 17; family 6
As for B6, the binding result in assay [7] is “no binding”. In addition, the “percent inhibition of binding” value is 93% in the assay with human CD39 (gene ID 953) [1], -11% with human CD39 (gene ID 953) [2], 95% with human CD39 (gene ID 953) [3] and 39% with human CD39 (gene ID 953) [4].

B7: SB39 rabbit IgG hcAb (Fc fusion, not shown: a dimerising Fc or GST)
VHH: QVQLVESGGGLVQPGGSLRLSCAASGFTLDYFAIGWFRQGPGKERDWVSCISKDGTTYYIDSVKGRFTISRDNAKNTGYLQMSGLKPDDTAVYYCARGAGGCQSDFGARGQGTQVTVSS
notes: also called l- 11; family 7
With B7, in assay [9], the binding result is listed as “binds”. The “percent inhibition of binding” value with human CD39 (gene ID 953) [1] was 98%; with human CD39 (gene ID 953) [2], 39%; in the assay with human CD39 (gene ID 953) [3], 96%; with human CD39 (gene ID 953) [4], 91%.

B8: SB136 rabbit IgG hcAb (Fc fusion, not shown: a dimerising Fc or GST)
VHH: DVQLQASGGGLVQPGGSLRLSCAASGFRFSIYDMSWVRRPPGKGLEWVSSITSPGGTTYADSVKGRFTISRDNDKNTLYLQMNSLKPEDTAIYYCAKAYGGRSVVAQTARGQGTQVTVSS
notes: also called s- 12; family 5
On to B8, for which the binding result in assay [7] is listed as “no binding”. The “percent inhibition of binding” value with human CD39 (gene ID 953) [1] is 16%; with human CD39 (gene ID 953) [2], -11%; with human CD39 (gene ID 953) [3], 0%; with human CD39 (gene ID 953) [4], 75%. Besides, the koff in [6] came to 0.0012 s⁻¹.

B9: SB32 rabbit IgG hcAb (Fc fusion, not shown: a dimerising Fc or GST)
VHH: QVQLVESGGGLVQAGGSLRLSCAVSKRTSTHYAMGWFRQAPGLVREFVGVINWNGGTTYYADSVKGRFFISRDNAKNTMALQMNNLKPEDTAVYYCALKVDGLGLTSNEYQHWGQGTQVTVSS
notes: also called l- 14d; family 10
B9: the binding result (with human CD39 (gene ID 953) [8]; in assay [9]) was “binds” in each case.

B10: SB112 rabbit IgG hcAb (Fc fusion, not shown: a dimerising Fc or GST)
VHH: QVQLQESGGGLVQAGGSLRLSCTASGRSFSSNAMGWFRQAPGKEREFVARINWSGSRTFYTDSVKGRFTISRDNAKNTMYLQMNSLKPEDTAVYYCAADPNYGSSITSGYTYWGQGTQVTVSS
notes: also called l- 14c; family 9
Take B10: the binding result (with human CD39 (gene ID 953) [8]; in assay [9]) was “binds” each time.

B11: SB27 rabbit IgG hcAb (Fc fusion, not shown: a dimerising Fc or GST)
VHH: QVQLVESGGGLVQPGGSLRLSCAASGSIFSFNAMGWYRQAPGKQRELVAAITSGGSTNYADSVKGRFTISRDNAKNTVYLQMNSLKPEDTAVYYCNGIGGSTWFGEDEYDYWGQGTQVTVSS
notes: also called family 1
With B11, in the assay with human CD39 (gene ID 953) [5], the binding result is “binds”. For the same molecule, the koff in assay [6] worked out at 0.0031 s⁻¹.

B12: SB131 rabbit IgG hcAb (Fc fusion, not shown: a dimerising Fc or GST)
VHH: B11 VHH with G26E, F29V, E46D, S56R, D61E, N73D, N96H, G97A, Y109P
notes: also called family 1
As to B12, the binding result in the assay with human CD39 (gene ID 953) [5] is recorded as “binds”. Further, the koff in assay [6] stood at 0.00084 s⁻¹.

B13: SB132 rabbit IgG hcAb (Fc fusion, not shown: a dimerising Fc or GST)
VHH: B11 VHH with S30N, P41S, D72G, N96H, D107E, Y111S
notes: also called family 1
In the case of B13, the binding result with human CD39 (gene ID 953) [5] is on record as “binds”. Besides, in assay [6], the koff worked out at 0.0011 s⁻¹.

B14: SB130 rabbit IgG hcAb (Fc fusion, not shown: a dimerising Fc or GST)
VHH: B11 VHH with L11S, R19K, F29S, F31I, S56Y, G97A, Y111N
notes: also called family 1
Turning to B14, the binding result with human CD39 (gene ID 953) [5] is reported as “binds”. Moreover, the koff in assay [6] worked out at 0.0015 s⁻¹.

B15: SB24 rabbit IgG hcAb (Fc fusion, not shown: a dimerising Fc or GST)
VHH: B11 VHH with S56N, T68A, N83S, N96K, Y109P
notes: Bivalent VHH-Fc heavy chain antibody; also called l- 14a; family 1
On to B15, for which the binding result in assay [7] is “no binding”. Besides, the “percent inhibition of binding” value with human CD39 (gene ID 953) [1] worked out at 39%; in the assay with human CD39 (gene ID 953) [2] it was 99%; in the assay with human CD39 (gene ID 953) [3], 40%; in the assay with human CD39 (gene ID 953) [4], 53%. The koff in [6] was determined as 0.00099 s⁻¹.

B16: SB134 rabbit IgG hcAb (Fc fusion, not shown: a dimerising Fc or GST)
VHH: QVKLQESGGGWVQPGGSLRLSCAASGFTFRTHFMSWVRQAPGQGLEWVSGITSGGRTSYVDSVKGRFTISRDNAANTLYLQMNSLKPEDTAVYFCTKGDSGARGQGTQVTVSS
notes: also called l- 5a; family 3
Consider B16, for which the binding result in [7] was “no binding”. Besides, in [6], the koff worked out at 0.012 s⁻¹. Also, the results for the “percent inhibition of binding” value with human CD39 (gene ID 953) [2], with human CD39 (gene ID 953) [3] and in the assay with human CD39 (gene ID 953) [4] were 15%, 58% and 41%, respectively.
